Measured values: patent publication US10562947B2, “Compositions and methods for preventing or treating diseases, conditions or processes characterized by aberrant fibroblast proliferation and extracellular matrix deposition” (MOERAE MATRIX, INC., priority 2011, dated 2020)
Where a SMILES comes first, the peptide text is derived from it.

Experiments:
Assay in all cases: Kinase Profiling Assay
Type in all cases: biochemical
EphB2(h) = biological target: T1, EphB2(h) (Homo sapiens, UniProt P29323); settings: 100 μM peptide
T1 sequence (P29323 19-1055): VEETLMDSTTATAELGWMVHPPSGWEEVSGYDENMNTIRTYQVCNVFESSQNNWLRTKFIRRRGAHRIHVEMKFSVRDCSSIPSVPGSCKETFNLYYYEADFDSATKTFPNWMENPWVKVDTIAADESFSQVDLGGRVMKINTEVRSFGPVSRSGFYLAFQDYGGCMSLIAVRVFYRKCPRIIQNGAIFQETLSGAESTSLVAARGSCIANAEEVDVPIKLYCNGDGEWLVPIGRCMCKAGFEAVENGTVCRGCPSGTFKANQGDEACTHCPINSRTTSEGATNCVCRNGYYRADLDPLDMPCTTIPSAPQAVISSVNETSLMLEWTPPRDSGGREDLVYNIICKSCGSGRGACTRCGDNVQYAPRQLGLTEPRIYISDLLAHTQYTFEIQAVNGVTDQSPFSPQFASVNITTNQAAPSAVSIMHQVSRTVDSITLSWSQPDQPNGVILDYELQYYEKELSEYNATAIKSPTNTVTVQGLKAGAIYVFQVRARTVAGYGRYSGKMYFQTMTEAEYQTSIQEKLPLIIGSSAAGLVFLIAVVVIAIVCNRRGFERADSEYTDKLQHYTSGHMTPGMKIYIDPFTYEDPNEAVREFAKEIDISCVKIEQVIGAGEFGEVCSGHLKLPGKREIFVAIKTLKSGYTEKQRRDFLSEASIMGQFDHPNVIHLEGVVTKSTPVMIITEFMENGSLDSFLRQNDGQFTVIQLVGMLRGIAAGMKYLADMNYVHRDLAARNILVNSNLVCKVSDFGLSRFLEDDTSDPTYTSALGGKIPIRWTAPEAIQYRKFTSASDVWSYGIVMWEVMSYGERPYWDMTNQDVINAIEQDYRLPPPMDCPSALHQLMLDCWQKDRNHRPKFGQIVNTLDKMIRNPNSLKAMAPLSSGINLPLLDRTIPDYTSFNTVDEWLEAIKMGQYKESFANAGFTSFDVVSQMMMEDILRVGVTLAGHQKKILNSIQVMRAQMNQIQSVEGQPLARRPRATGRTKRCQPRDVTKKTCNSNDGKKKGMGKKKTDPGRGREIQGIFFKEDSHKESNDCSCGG
Experimental: (§1) Every kinase activity measurement was conducted in duplicate.
(§2) In addition to determining the IC50 of the compound, the specificity of MK2 inhibitory peptides was assessed by examining activities of all 266 human kinases available for testing in the Millipore kinase profiling service (Table 1).

FGFR3(h) = FGFR3(h) (Homo sapiens, UniProt P22607); settings: 100 μM peptide
Sequence of FGFR3(h) (P22607 23-806): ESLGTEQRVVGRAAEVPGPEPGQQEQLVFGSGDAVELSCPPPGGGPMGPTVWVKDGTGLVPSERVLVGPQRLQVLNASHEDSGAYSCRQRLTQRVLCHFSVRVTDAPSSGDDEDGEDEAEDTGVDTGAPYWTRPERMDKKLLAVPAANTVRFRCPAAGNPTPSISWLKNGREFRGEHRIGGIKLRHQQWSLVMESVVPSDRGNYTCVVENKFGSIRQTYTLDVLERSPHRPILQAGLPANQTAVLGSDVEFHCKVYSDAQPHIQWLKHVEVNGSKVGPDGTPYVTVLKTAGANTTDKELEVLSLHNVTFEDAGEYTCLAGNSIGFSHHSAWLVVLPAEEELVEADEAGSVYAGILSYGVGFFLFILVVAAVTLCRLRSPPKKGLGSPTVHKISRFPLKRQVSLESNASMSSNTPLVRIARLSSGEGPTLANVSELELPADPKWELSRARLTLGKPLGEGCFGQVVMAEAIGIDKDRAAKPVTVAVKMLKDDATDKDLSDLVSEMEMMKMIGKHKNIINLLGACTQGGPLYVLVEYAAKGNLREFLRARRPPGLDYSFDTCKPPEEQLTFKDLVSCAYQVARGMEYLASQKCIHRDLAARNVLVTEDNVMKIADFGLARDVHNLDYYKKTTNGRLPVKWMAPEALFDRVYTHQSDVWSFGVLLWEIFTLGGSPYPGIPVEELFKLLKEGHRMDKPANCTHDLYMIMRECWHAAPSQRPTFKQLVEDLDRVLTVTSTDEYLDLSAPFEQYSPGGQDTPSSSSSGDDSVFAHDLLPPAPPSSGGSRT
Experimental: as §1, §2

Fms(Y969C)(h) = Fms(Y969C)(h) (Homo sapiens, UniProt P07333, Y969C); settings: 100 μM peptide
Experimental: as §1, §2

GRK7(h) = biological target: T2, GRK7(h) (Homo sapiens, UniProt Q8WTQ7); settings: 100 μM peptide
T2 construct: purchased Millipore
T2 sequence (Q8WTQ7 1-553): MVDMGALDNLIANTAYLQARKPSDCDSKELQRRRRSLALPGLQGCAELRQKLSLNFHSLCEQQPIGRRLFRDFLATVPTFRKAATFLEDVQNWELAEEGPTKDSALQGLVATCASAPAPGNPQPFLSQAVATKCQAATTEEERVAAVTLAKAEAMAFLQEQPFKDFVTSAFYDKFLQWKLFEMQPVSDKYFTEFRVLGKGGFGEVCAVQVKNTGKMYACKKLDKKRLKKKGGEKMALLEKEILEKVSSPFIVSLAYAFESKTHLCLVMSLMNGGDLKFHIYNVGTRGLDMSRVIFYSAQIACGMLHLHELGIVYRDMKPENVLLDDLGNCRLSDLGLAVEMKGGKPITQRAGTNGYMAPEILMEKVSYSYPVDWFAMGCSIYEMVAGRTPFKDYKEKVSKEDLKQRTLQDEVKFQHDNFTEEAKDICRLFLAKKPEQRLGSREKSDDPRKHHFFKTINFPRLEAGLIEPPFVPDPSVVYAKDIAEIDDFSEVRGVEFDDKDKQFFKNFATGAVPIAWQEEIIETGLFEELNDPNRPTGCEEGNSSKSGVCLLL
Experimental: as §1, §2

MAPKAP-K2(h) = MAPKAP-K2(h) (Homo sapiens, UniProt P49137); settings: for MAPKAP-K2(h) % activity: 100 μM peptide
Sequence of MAPKAP-K2(h) (P49137 whole entry): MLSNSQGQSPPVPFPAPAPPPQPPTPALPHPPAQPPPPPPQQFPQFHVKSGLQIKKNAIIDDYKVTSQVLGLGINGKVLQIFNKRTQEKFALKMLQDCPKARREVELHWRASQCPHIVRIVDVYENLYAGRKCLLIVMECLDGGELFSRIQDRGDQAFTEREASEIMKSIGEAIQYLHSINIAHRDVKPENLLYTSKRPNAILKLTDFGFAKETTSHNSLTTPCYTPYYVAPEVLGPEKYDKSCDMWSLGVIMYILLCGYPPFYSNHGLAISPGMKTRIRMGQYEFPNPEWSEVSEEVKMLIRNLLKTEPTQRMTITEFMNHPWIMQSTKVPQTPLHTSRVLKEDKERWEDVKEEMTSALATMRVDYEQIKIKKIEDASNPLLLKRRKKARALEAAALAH
Experimental: as §1, §2

Tec(h) activated = biological target: T3, Tec(h) activated (Homo sapiens, UniProt P42680); settings: 100 μM peptide
T3 sequence (P42680 1-631): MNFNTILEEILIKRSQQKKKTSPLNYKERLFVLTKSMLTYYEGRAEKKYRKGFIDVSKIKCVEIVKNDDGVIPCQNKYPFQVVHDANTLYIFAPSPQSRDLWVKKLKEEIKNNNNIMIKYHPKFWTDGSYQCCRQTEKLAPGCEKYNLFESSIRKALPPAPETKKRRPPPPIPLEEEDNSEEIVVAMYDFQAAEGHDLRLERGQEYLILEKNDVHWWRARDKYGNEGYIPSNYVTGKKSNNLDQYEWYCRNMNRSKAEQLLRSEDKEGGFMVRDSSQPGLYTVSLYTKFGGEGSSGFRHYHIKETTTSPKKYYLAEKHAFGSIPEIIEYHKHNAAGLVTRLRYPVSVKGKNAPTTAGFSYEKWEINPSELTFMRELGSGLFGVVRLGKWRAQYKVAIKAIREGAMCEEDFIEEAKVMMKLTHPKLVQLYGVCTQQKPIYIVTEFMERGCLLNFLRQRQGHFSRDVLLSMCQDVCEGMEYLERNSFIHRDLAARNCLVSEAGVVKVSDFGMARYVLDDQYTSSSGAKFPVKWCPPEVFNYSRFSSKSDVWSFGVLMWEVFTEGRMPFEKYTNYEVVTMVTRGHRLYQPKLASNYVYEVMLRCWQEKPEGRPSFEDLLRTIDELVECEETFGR
Experimental: as §1, §2

MARK1(h) = MARK1(h) (Homo sapiens, UniProt Q9P0L2); settings: 100 μM peptide
Sequence of MARK1(h) (Q9P0L2 whole entry): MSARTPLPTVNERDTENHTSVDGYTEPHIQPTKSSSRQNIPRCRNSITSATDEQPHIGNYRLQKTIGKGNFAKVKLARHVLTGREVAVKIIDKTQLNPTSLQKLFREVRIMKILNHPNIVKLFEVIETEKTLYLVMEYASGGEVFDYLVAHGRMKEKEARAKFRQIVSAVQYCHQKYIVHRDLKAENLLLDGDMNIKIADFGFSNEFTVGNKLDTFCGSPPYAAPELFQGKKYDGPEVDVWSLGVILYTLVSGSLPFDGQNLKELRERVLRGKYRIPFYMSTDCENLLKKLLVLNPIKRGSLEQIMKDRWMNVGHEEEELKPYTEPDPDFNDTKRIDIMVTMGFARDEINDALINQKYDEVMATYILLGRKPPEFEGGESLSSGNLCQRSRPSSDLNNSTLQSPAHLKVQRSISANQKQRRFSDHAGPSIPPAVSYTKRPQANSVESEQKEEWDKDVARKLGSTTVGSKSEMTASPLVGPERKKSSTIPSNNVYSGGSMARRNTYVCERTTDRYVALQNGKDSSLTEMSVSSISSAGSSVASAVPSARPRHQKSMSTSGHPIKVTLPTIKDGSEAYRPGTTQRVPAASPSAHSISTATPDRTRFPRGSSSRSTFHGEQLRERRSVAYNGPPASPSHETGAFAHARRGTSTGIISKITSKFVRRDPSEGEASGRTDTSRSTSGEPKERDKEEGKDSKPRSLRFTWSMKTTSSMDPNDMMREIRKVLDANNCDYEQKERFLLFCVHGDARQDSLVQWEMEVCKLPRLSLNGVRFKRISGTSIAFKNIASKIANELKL
Experimental: as §1, §2

Rsk1(h) = biological target: T4, Rsk1(h) (Homo sapiens, UniProt Q15418); settings: 100 μM peptide
T4 construct: purchased Millipore (IC50 Profiler Express service)
T4 sequence (Q15418 whole entry): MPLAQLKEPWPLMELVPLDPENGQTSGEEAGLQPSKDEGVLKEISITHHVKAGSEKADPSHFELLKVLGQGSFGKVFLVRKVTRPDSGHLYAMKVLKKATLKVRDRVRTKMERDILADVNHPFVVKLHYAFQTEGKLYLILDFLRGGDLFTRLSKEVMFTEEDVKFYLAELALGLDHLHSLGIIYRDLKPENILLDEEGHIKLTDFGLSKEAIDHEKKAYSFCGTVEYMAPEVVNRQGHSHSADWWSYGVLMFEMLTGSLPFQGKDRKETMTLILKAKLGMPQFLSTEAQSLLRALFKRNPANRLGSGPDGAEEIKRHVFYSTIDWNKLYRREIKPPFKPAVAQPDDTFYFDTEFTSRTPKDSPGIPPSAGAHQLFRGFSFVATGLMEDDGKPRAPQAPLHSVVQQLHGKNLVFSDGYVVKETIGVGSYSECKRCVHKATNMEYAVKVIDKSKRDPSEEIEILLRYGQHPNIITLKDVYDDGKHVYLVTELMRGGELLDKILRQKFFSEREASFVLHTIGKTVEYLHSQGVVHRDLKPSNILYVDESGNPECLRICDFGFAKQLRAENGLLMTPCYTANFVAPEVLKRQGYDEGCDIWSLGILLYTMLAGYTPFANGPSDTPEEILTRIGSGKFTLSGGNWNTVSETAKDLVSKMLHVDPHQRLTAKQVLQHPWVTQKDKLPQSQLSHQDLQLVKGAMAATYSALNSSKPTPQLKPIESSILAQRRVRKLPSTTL
Experimental: as §1, §2

Molecule | EphB2(h) % activity (EphB2(h)) [%] | FGFR3(h) % activity (FGFR3(h)) [%] | Fms(Y969C)(h) % activity (Fms(Y969C)(h)) [%] | GRK7(h) % activity (GRK7(h)) [%] | MAPKAP-K2(h) % activity (MAPKAP-K2(h)) [%] | Tec(h) activated % activity (Tec(h) activated) [%] | MARK1(h) % activity (MARK1(h)) [%] | Rsk1(h) % activity (Rsk1(h)) [%] | inhibition at 100 µM (MAPKAP-K2(h); read-out: inhibition of kinase activity of MK2) [%]
YARAAARQARAKALNRQLGVA (Mammalian) [MMI-0200] | 128 | 208 | 88 | 124 | 35 | 77 | – | – | –
HRRIKAWLKKIKALARQLGVAA (Mammalian) [MMI-0500] | 70 | 10 | – | 93 | 9 | 33 | 110 | 34 | –
CC(C)C[C@H](NC(=O)[C@H](C)NC(=O)[C@H](CCCCN)NC(=O)[C@H](C)NC(=O)[C@H](CCCNC(=N)N)NC(=O)[C@H](C)NC(=O)[C@H](CCC(N)=O)NC(=O)[C@H](CCCNC(=N)N)NC(=O)[C@H](C)NC(=O)[C@H](C)NC(=O)[C@H](C)NC(=O)[C@H](CCCNC(=N)N)NC(=O)[C@H](C)NC(=O)[C@@H](N)Cc1ccc(O)cc1)C(=O)N[C@@H](C)C(=O)N[C@@H](CCCNC(=N)N)C(=O)N[C@@H](CCC(N)=O)C(=O)N[C@@H](CC(C)C)C(=O)NCC(=O)N[C@H](C(=O)N[C@@H](C)C(=O)N[C@@H](C)C(=O)O)C(C)C [MMI-0100] (H-YARAAARQARAKALARQLGVAA-OH; N-terminus and C-terminus assumed) | – | – | – | – | – | – | – | – | > 65
KAFAKLAARLYRKALARQLGVAA [MMI-0400] | 22 | 0 | 91 | 100 | 5 | 29 | 120 | 54 | –
FAKLAARLYRKALARQLGVAA [MMI-0300] | 18 | – | 72 | 122 | 5 | 56 | 132 | 46 | –
